Source: patent US7393918B2, “Protein binding miniature proteins and uses thereof” (priority 2003, dated 2008)

Assays:
Mena1-112 = Mena1-112 (Mus musculus, UniProt Q03173); assay: competition with pGolemi^Flu for binding to Mena1-112; details: read-out: IC50, competition with pGolemi^Flu for binding to Mena1-112
Mena1-112 EVH1 domain = Mena1-112 EVH1 domain (Mus musculus, UniProt Q03173); assay: tryptophan fluorescence perturbation analysis of EVH1 domain binding; details: all EVH1 domains tested (Mena1-112, VASP1-115, Evl1-115)
Mena1-112 EVH1 domain, sequence (Q03173 1-112): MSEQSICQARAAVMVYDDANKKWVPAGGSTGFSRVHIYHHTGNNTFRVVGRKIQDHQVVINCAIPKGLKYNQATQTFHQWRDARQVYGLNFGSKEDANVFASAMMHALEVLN

L. monocytogenes = L. monocytogenes actin-based motility in Xenopus laevis egg cytoplasmic extracts; design: species or system Listeria monocytogenes
Procedure: Errors bars show the intraquartile range.
L. monocytogenes motility in mammalian cells and extracts is due to interactions between the 639-residue bacterial protein ActA and host proteins that recruit and activate actin polymerization. Addition of 10 μM ActA11 decreased the median speed of L. monocytogenes by 89%, consistent with previous work. […] Further experimentation will be required to fully understand the molecular events that result in altered motility.

Mena1-112, sequence (Q03173 1-112): as above

Substance: ActA11: 11 residue peptide comprising PPII repeat 2 of L. monocytogenes ActA; best previously known Mena ligand (DFPPPPTDEEL; ActA11, peptide comprising PPII repeat of ActA protein)
- IC50 (Mena1-112): 4 ± 0.2 µM
- Krel among EVH1 domains (Mena1-112 EVH1 domain): < 3
- decrease of median speed of L. monocytogenes (L. monocytogenes; 10 μM): 89%
- discontinuous tail formation of L. monocytogenes (L. monocytogenes; any concentration tested): Discontinuous tails were not observed
